Patent publication US20210371461

Target: T1, MePEG2-IEGR (TFA salt)
T1 chain: IEGR

B1: tissue-type plasminogen activator (protein)
chain: SYQVICRDEKTQMIYQQHQSWLRPVLRSNRVEYCWCNSGRAQCHSVPVKSCSEPRCFNGGTCQQALYFSDFVCQCPEGFAGKCCEIDTRATCYEDQGISYRGTWSTAESGAECTNWNSSALAQKPYSGRRPDAIRLGLGNHNYCRNPDRDSKPWCYVFKAGKYSSEFCSTPACSEGNSDCYFGNGSAYRGTHSLTESGASCLPWNSMILIGKVYTAQNPSAQALGLGKHNYCRNPDGDAKPWCHVLKNRRLTWEYCDVPSCSTCGLRQYSQPQFRIKGGLFADIASHPWQAAIFAKHRRSPGERFLCGGILISSCWILSAAHCFQERFPPHHLTVILGRTYRVVPGEEEQKFEVEKYIVHKEFDDDTYDNDIALLQLKSDSSRCAQESSVVRTVCLPPADLQLPDWTECELSGYGKHEALSPFYSERLKEAHVRLYPSSRCTSQHLLNRTVTDNMLCAGDTRSGGPQANLHDACQGDSGGPLVCLNDGRMTLVGIISWGLGCGQKDVPGVYTKVTNYLDWIRDNMRP
Q: With B1 as the protein, how does the “luminescence signal (RLU) from substrate cleavage, 193 IU/mL enzyme” value read?
A: 193 IU/mL tPA yielded ˜6.000 RLU

B2: plasmin (protein)
chain: KVYLSECKTGNGKNYRGTMSKTKNGITCQKWSSTSPHRPRFSPATHPSEGLEENYCRNPDNDPQGPWCYTTDPEKRYDYCDILECEEECMHCSGENYDGKISKTMSGLECQAWDSQSPHAHGYIPSKFPNKNLKKNYCRNPDRELRPWCFTTDPNKRWELCDIPRCTTPPPSSGPTYQCLKGTGENYRGNVAVTVSGHTCQHWSAQTPHTHNRTPENFPCKNLDENYCRNPDGKRAPWCHTTNSQVRWEYCKIPSCDSSPVSTEQLAPTAPPELTPVVQDCYHGDGQSYRGTSSTTTTGKKCQSWSSMTPHRHQKTPENYPNAGLTMNYCRNPDADKGPWCFTTDPSVRWEYCNLKKCSGTEASVVAPPPVVLLPDVETPSEEDCMFGNGKGYRGKRATTVTGTPCQDWAAQEPHRHSIFTPETNPRAGLEKNYCRNPDGDVGGPWCYTTNPRKLYDYCDVPQCAAPSFDCGKPQVEPKKCPGRVVGGCVAHPHSWPWQVSLRTRFGMHFCGGTLISPEWVLTAAHCLEKSPRPSSYKVILGAHQEVNLEPHVQEIEVSRLFLEPTRKDIALLKLSSPAVITDKVIPACLPSPNYVVADRTECFITGWGETQGTFGAGLLKEAQLPVIENKVCNRYEFLNGRVQSTELCAGHLAGGTDSCQGDSGGPLVCFEKDKYILQGVTSWGLGCARPNKPGVYVRVSRFVTWIEGVMRNN
Q: B2 was tested. Which “luminescence signal (RLU) from substrate cleavage, 8 nM enzyme” value did it give?
A: 8 nM plasmin yielded ˜8.000 RLU

B3: factor XIIa (protein)
chain: IPPWEAPKEHKYKAEEHTVVLTVTGEPCHFPFQYHRQLYHKCTHKGRPGPQPWCATTPNFDQDQRWGYCLEPKKVKDHCSKHSPCQKGGTCVNMPSGPHCLCPQHLTGNHCQKEKCFEPQLLRFFHKNEIWYRTEQAAVARCQCKGPDAHCQRLASQACRTNPCLHGGRCLEVEGHRLCHCPVGYTGAFCDVDTKASCYDGRGLSYRGLARTTLSGAPCQPWASEATYRNVTAEQARNWGLGGHAFCRNPDNDIRPWCFVLNRDRLSWEYCDLAQCQTPTQAAPPTPVSPRLHVPLMPAQPAPPKPQPTTRTPPQSQTPGALPAKREQPPSLTRNGPLSCGQRLRKSLSSMTRVVGGLVALRGAHPYIAALYWGHSFCAGSLIAPCWVLTAAHCLQDRPAPEDLTVVLGQERRNHSCEPCQTLAVRSYRLHEAFSPVSYQHDLALLRLQEDADGSCALLSPYVQPVCLPSGAARPSETTLCQVAGWGHQFEGAEEYASFLQEAQVPFLSLERCSAPDVHGSSILPGMLCAGFLEGGTDACQGDSGGPLVCEDQAAERRLTLQGIISWGSGCGDRNKPGVYTDVAYYLAWIREHTVS
Q: B3 was tested. Which “luminescence signal (RLU) from substrate cleavage, 145 nM enzyme” value did it give?
A: 145 nM FXlla yielded ˜500 RLU
